Laboratory results published in patent US20230357429A1 (JANUX THERAPEUTICS, published 2023).
Where two headings read alike, the source gives them in different places. Where no end group is shown, it is not given here.

T1: Peptide-32 (cysteine pairing not given here; also: biotinylated, site not given here)
T1 peptide: PDFCYMYGWPICDS

T2: Peptide-35 (cysteine pairing not given here; also: biotinylated, site not given here)
T2 peptide: EDFCYWYQWPICSD

T3: Peptide-42 (cysteine pairing not given here; also: biotinylated, site not given here)
T3 peptide: IDFCAMYHWPICDT

T4: Peptide-43 (cysteine pairing not given here; also: biotinylated, site not given here)
T4 peptide: VDFCALYHWPICYQ

T5: Peptide-64 (cysteine pairing not given here; also: biotinylated, site not given here)
T5 peptide: PDFCAVYRWPICYQ

T6: Peptide-3 (cysteine pairing not given here; also: biotinylated, site not given here)
T6 peptide: IDFCMLYNWPICAG

T7: Peptide-8 (cysteine pairing not given here; also: biotinylated, site not given here)
T7 peptide: VDFCGLYHWPICYQ

T8: Peptide-45 (cysteine pairing not given here; also: biotinylated, site not given here)
T8 peptide: VDFCYQYGWPICSRVD

T9: Peptide-46 (cysteine pairing not given here; also: biotinylated, site not given here)
T9 peptide: VEFCAIYSWPICKI

T10: Peptide-47 (cysteine pairing not given here; also: biotinylated, site not given here)
T10 peptide: VDFCYQYGWPICSRLY

T11: Peptide-48 (cysteine pairing not given here; also: biotinylated, site not given here)
T11 peptide: VDFCYMYKWPVCYP

T12: Peptide-49 (cysteine pairing not given here; also: biotinylated, site not given here)
T12 peptide: IDFCLLYKWPVCEL

T13: Peptide-50 (cysteine pairing not given here; also: biotinylated, site not given here)
T13 peptide: VDFCAIYSWPICKI

T14: Peptide-51 (cysteine pairing not given here; also: biotinylated, site not given here)
T14 peptide: VDFCGLYHWPICYQV

T15: Peptide-52 (cysteine pairing not given here; also: biotinylated, site not given here)
T15 peptide: VDFCYQYAWPVCSTGD

T16: Peptide-53 (cysteine pairing not given here; also: biotinylated, site not given here)
T16 peptide: IDFCRVYDWPVCSL

T17: Peptide-54 (cysteine pairing not given here; also: biotinylated, site not given here)
T17 peptide: VDFCYRYSWPVCWA

T18: Peptide-55 (cysteine pairing not given here; also: biotinylated, site not given here)
T18 peptide: VDFCYKYNWPICSR

T19: Peptide-56 (cysteine pairing not given here; also: biotinylated, site not given here)
T19 peptide: VDFCYQYGWPICSRV

T20: Peptide-57 (cysteine pairing not given here; also: biotinylated, site not given here)
T20 peptide: IDFCYRYGWPVCQT

T21: Peptide-59 (cysteine pairing not given here; also: biotinylated, site not given here)
T21 peptide: VDFCALYNWPVCAI

T22: Peptide-60 (cysteine pairing not given here; also: biotinylated, site not given here)
T22 peptide: VDFCNLYHWPICAI

T23: Peptide-61 (cysteine pairing not given here; also: biotinylated, site not given here)
T23 peptide: VDFCALYHWPVCGL

T24: Human TROP2 ECD (31-274 AA), biotinylated (human, UniProt P09758 31-274, biotinylated (site not stated))
T24 construct: captured on neutravidin plates; also called TROP2-biotin; Trop2-biotin
T24 sequence: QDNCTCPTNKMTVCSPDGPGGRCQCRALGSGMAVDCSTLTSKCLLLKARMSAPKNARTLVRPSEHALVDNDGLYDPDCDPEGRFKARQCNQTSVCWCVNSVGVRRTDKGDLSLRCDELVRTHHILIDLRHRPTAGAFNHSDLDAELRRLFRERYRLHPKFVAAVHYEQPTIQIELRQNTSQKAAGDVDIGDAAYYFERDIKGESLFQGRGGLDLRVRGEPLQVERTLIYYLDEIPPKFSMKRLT

T25: Peptide-24 (cysteine pairing not given here; also: biotinylated (site not given here))
T25 peptide: SVLFCVKNLYCWVT

T26: Peptide-25 (cysteine pairing not given here; also: biotinylated (site not given here))
T26 peptide: VDFCKIYSWPVCHQ


Key:
Peptide-32 = molecular target: T1, Peptide-32; assay: ELISA, Fab on captured biotin-peptide
Procedure: (§1) Binding was measured in a standard ELISA format. […] Bound TBDs were detected using a standard horse radish peroxidase conjugate secondary antibody. The ELISA signal was plotted versus the log-scale concentration of TBD. The concentrations of TBD required to observe half maximal binding signal (EC₅₀s) were calculated using Graphpad Prism software.

Peptide-35 = molecular target: T2, Peptide-35; assay: ELISA, Fab on captured biotin-peptide
Procedure: as §1

Peptide-42 = molecular target: T3, Peptide-42; assay: ELISA, Fab on captured biotin-peptide
Procedure: as §1

Peptide-43 [1] = molecular target: T4, Peptide-43; assay: ELISA, Fab on captured biotin-peptide
Procedure: as §1

Peptide-64 = molecular target: T5, Peptide-64; assay: ELISA, Fab on captured biotin-peptide
Procedure: as §1

Peptide-3 = molecular target: T6, Peptide-3; assay: ELISA, Fab on captured biotin-peptide
Procedure: as §1

Peptide-8 = molecular target: T7, Peptide-8; assay: ELISA, Fab on captured biotin-peptide
Procedure: as §1

Peptide-43 [2] = molecular target: T4, Peptide-43; assay: ELISA, Fab on captured biotin-peptide
Procedure: as §1

Peptide-45 = molecular target: T8, Peptide-45; assay: ELISA, Fab on captured biotin-peptide
Procedure: as §1

Peptide-46 = molecular target: T9, Peptide-46; assay: ELISA, Fab on captured biotin-peptide
Procedure: as §1

Peptide-47 = molecular target: T10, Peptide-47; assay: ELISA, Fab on captured biotin-peptide
Procedure: as §1

Peptide-48 = molecular target: T11, Peptide-48; assay: ELISA, Fab on captured biotin-peptide
Procedure: as §1

Peptide-49 = molecular target: T12, Peptide-49; assay: ELISA, Fab on captured biotin-peptide
Procedure: as §1

Peptide-50 = molecular target: T13, Peptide-50; assay: ELISA, Fab on captured biotin-peptide
Procedure: as §1

Peptide-51 = molecular target: T14, Peptide-51; assay: ELISA, Fab on captured biotin-peptide
Procedure: as §1

Peptide-52 = molecular target: T15, Peptide-52; assay: ELISA, Fab on captured biotin-peptide
Procedure: as §1

Peptide-53 = molecular target: T16, Peptide-53; assay: ELISA, Fab on captured biotin-peptide
Procedure: as §1

Peptide-54 = molecular target: T17, Peptide-54; assay: ELISA, Fab on captured biotin-peptide
Procedure: as §1

Peptide-55 = molecular target: T18, Peptide-55; assay: ELISA, Fab on captured biotin-peptide
Procedure: as §1

Peptide-56 = molecular target: T19, Peptide-56; assay: ELISA, Fab on captured biotin-peptide
Procedure: as §1

Peptide-57 = molecular target: T20, Peptide-57; assay: ELISA, Fab on captured biotin-peptide
Procedure: as §1

Peptide-59 = molecular target: T21, Peptide-59; assay: ELISA, Fab on captured biotin-peptide
Procedure: as §1

Peptide-60 = molecular target: T22, Peptide-60; assay: ELISA, Fab on captured biotin-peptide
Procedure: as §1

Peptide-61 = molecular target: T23, Peptide-61; assay: ELISA, Fab on captured biotin-peptide
Procedure: as §1

[3] = molecular target: T24, Human TROP2 ECD (31-274 AA), …; assay: ELISA, Fab on captured biotin-TROP2
[4] = molecular target: T24, Human TROP2 ECD (31-274 AA), …; assay: ELISA, Fab on captured biotin-TROP2; remark: listed apart in the source
Peptide-24 = molecular target: T25, Peptide-24; assay: ELISA, Fab on captured biotin-peptide
Procedure: as §1

[5] = molecular target: T24, Human TROP2 ECD (31-274 AA), …; assay: ELISA, Fab on captured biotin-TROP2; remark: listed apart in the source
Peptide-25 = molecular target: T26, Peptide-25; assay: ELISA, Fab on captured biotin-peptide; Table 18 peptide set (separate ELISA run)
Procedure: as §1

Binder	EC50 (Peptide-32) [nM]	EC50 (Peptide-35) [nM]	EC50 (Peptide-42) [nM]	EC50 (Peptide-43 [1]) [nM]	EC50 (Peptide-64) [nM]	EC50 (Peptide-3) [nM]	EC50 (Peptide-8) [nM]	EC50 (Peptide-43 [2]) [nM]	EC50 (Peptide-45) [nM]	EC50 (Peptide-47) [nM]	EC50 (Peptide-48) [nM]	EC50 (Peptide-49) [nM]	EC50 (Peptide-50) [nM]	EC50 (Peptide-51) [nM]	EC50 (Peptide-53) [nM]	EC50 (Peptide-54) [nM]	EC50 (Peptide-55) [nM]	EC50 (Peptide-56) [nM]	EC50 [3] [nM]	EC50 [4] [nM]	other results
TBD-1 wt (Fab, V domains shown, Fab; the heavy chain entry is VH-CH1; also called wild-type anti-TROP2 Fab (hRS7); TROP2 Fab) VH: QVQLQQSGSELKKPGASVKVSCKASGYTFTNYGMNWVKQAPGQGLKWMGWINTYTGEPTYTDDFKGRFAFSLDTSVSTAYLQISSLKADDTAVYFCARGGFGSSYWYFDVWGQGSLVTVSS VL: DIQLTQSPSSLSASVGDRVSITCKASQDVSIAVAWYQQKPGKAPKLLIYSASYRYTGVPDRFSGSGSGTDFTLTISSLQPEDFAVYYCQQHYITPLTFGAGTKVEIKR	34.6	261	28.5	27.5	28.3	91.5	55.6	28.6	50.8	113	21.5	296	96.2	45.1	45.3	63.5	15.7	52.8	–	–	EC50 (Peptide-46): 668 nM; EC50 (Peptide-52): 127 nM; EC50 (Peptide-57): 25.7 nM; EC50 (Peptide-59): 61.1 nM; EC50 (Peptide-60): 47.8 nM; EC50 (Peptide-61): 191 nM
TBD-21 (HC F108A) (Fab, V domains shown, Fab; also called HC F108A mutant) VH: QVQLQQSGSELKKPGASVKVSCKASGYTFTNYGMNWVKQAPGQGLKWMGWINTYTGEPTYTDDFKGRFAFSLDTSVSTAYLQISSLKADDTAVYFCARGGFGSSYWYADVWGQGSLVTVSS VL: DIQLTQSPSSLSASVGDRVSITCKASQDVSIAVAWYQQKPGKAPKLLIYSASYRYTGVPDRFSGSGSGTDFTLTISSLQPEDFAVYYCQQHYITPLTFGAGTKVEIKR	27.1	331	13.8	12	11	–	–	–	–	–	–	–	–	–	–	–	–	–	4.2	4.2	EC50 (Peptide-24): 142 nM
TBD-17 (HC S104A) (Fab, V domains shown, Fab; also called HC S104A mutant) VH: QVQLQQSGSELKKPGASVKVSCKASGYTFTNYGMNWVKQAPGQGLKWMGWINTYTGEPTYTDDFKGRFAFSLDTSVSTAYLQISSLKADDTAVYFCARGGFGSAYWYFDVWGQGSLVTVSS VL: DIQLTQSPSSLSASVGDRVSITCKASQDVSIAVAWYQQKPGKAPKLLIYSASYRYTGVPDRFSGSGSGTDFTLTISSLQPEDFAVYYCQQHYITPLTFGAGTKVEIKR	35.1	215	5.5	4.9	3.8	–	–	–	–	–	–	–	–	–	–	–	–	–	0.3	0.3	EC50 (Peptide-24): 133 nM

Continued by falling EC50 (Peptide-32), values first:

EC50 (Peptide-32) [nM]	EC50 (Peptide-35) [nM]	EC50 (Peptide-42) [nM]	EC50 (Peptide-43 [1]) [nM]	EC50 (Peptide-64) [nM]	EC50 (Peptide-3) [nM]	EC50 (Peptide-8) [nM]	EC50 (Peptide-43 [2]) [nM]	EC50 (Peptide-45) [nM]	EC50 (Peptide-47) [nM]	EC50 (Peptide-48) [nM]	EC50 (Peptide-49) [nM]	EC50 (Peptide-50) [nM]	EC50 (Peptide-51) [nM]	EC50 (Peptide-53) [nM]	EC50 (Peptide-54) [nM]	EC50 (Peptide-55) [nM]	EC50 (Peptide-56) [nM]	EC50 [3] [nM]	EC50 [4] [nM]	Binder	other results
87.7	–	86.4	77.5	61.7	296	319	43.6	138	304	42.4	130	35.5	244	32.5	147	36.8	127	3.4	3.4	TBD-11 (HC R98A) (Fab, V domains shown, Fab; also called HC R98A mutant) VH: QVQLQQSGSELKKPGASVKVSCKASGYTFTNYGMNWVKQAPGQGLKWMGWINTYTGEPTYTDDFKGRFAFSLDTSVSTAYLQISSLKADDTAVYFCAAGGFGSSYWYFDVWGQGSLVTVSS VL: DIQLTQSPSSLSASVGDRVSITCKASQDVSIAVAWYQQKPGKAPKLLIYSASYRYTGVPDRFSGSGSGTDFTLTISSLQPEDFAVYYCQQHYITPLTFGAGTKVEIKR	EC50 [5]: 3.4 nM; EC50 (Peptide-57): 85.6 nM; EC50 (Peptide-59): 92.8 nM; EC50 (Peptide-60): 60.4 nM; EC50 (Peptide-61): 272 nM; EC50 (Peptide-25): 1000 nM
20.1	131	5.7	7.2	6.4	12.5	12.2	5.3	32.6	79.9	12.2	18.3	21.9	13.5	4.4	30	6.1	33.3	0.3	0.3	TBD-6 (LC I93A) (Fab, V domains shown, Fab; also called LC I93A mutant) VH: QVQLQQSGSELKKPGASVKVSCKASGYTFTNYGMNWVKQAPGQGLKWMGWINTYTGEPTYTDDFKGRFAFSLDTSVSTAYLQISSLKADDTAVYFCARGGFGSSYWYFDVWGQGSLVTVSS VL: DIQLTQSPSSLSASVGDRVSITCKASQDVSIAVAWYQQKPGKAPKLLIYSASYRYTGVPDRFSGSGSGTDFTLTISSLQPEDFAVYYCQQHYATPLTFGAGTKVEIKR	EC50 [5]: 0.3 nM; EC50 (Peptide-46): 102 nM; EC50 (Peptide-52): 39.3 nM; EC50 (Peptide-57): 9.2 nM; EC50 (Peptide-59): 5.4 nM; EC50 (Peptide-60): 7.7 nM; EC50 (Peptide-61): 11.8 nM
